Measured values taken from PMC9499628, “Nuclear Factor Kappa B Promotes Ferritin Heavy Chain Expression in Bombyx mori in Response to B. mori Nucleopolyhedrovirus Infection”.

How the values were obtained:
BmRelish RHD (RelRHD) [1] = target: T1, BmRelish RHD (RelRHD) (Bombyx mori, UniProt A0A8R2LW60 51-335); assay: competition; mutant competitor against CRE2 probe; band not affected; Chemiluminescent EMSA Kit (Beyotime), manufacturer's instructions; buffer, salt, pH and temperature not stated; conditions: protein: recombinant; tags: 6xHis (pET-30a); chain copies: 2; blunt
T1 sequence: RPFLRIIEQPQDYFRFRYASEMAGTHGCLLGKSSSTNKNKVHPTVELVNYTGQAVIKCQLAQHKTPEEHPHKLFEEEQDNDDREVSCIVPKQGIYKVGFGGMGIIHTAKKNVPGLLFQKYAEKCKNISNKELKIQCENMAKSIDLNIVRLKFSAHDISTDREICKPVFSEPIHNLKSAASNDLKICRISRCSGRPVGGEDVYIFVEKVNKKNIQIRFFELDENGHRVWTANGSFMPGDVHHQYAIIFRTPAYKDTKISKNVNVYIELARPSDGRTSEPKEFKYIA

BmRelish RHD (RelRHD) [2] = target: T1, BmRelish RHD (RelRHD); assay: EMSA; cold probe weakens band; Chemiluminescent EMSA Kit (Beyotime), manufacturer's instructions; buffer, salt, pH and temperature not stated; conditions: protein: recombinant; tags: 6xHis (pET-30a); chain copies: 2; label: 5' biotin (unlabelled as cold probe); blunt
BmRelish RHD (RelRHD) [3] = target: T1, BmRelish RHD (RelRHD); assay: competition; mutant competitor against CRE4 probe; band not affected; Chemiluminescent EMSA Kit (Beyotime), manufacturer's instructions; buffer, salt, pH and temperature not stated; conditions: protein: recombinant; tags: 6xHis (pET-30a); chain copies: 2; blunt

B1: Mut-CRE2 (dsDNA)
DNA 1: AATGTACATTATCTCCATCTCG
DNA 2: CGAGATGGAGATAATGTACATT
B1: no binding (BmRelish RHD (RelRHD) [1]).

B2: probe-CRE2 (dsDNA)
DNA 1: AATGTAGGTTATTTCCATCTCG
DNA 2: CGAGATGGAAATAACCTACATT
B2: binds (BmRelish RHD (RelRHD) [2]).

B3: probe-CRE4 (dsDNA)
DNA 1: AATAAGTGGGAATCTCTCCATCTCGC
DNA 2: GCGAGATGGAGAGATTCCCACTTATT
B3: binds (BmRelish RHD (RelRHD) [2]).

B4: Mut-CRE4 (dsDNA)
DNA 1: AATAAGTGCCAAACACTCCATCTCGC
DNA 2: GCGAGATGGAGTGTTTGGCACTTATT
B4: no binding (BmRelish RHD (RelRHD) [3]).
